Article PMC7515705

Target: T1, YBEY-3 × FLAG (human), P58557
T1 chain: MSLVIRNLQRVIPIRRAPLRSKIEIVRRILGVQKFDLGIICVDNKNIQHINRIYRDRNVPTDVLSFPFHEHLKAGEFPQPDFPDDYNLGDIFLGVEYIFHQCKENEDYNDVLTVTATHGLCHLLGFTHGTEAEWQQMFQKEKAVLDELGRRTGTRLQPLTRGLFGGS
Experiment: affinity purification with mass spectrometry; α-FLAG antibody and protein A-sepharose on mitochondrial lysates (0.5% n-dodecyl-β-D-maltoside, 20 mM Tris-HCl pH 7.5, 150 mM KCl, 4°C) of SAL001 cells expressing YBEY-3 × FLAG; parental Flp-In T-REx 293 as control; LC-MS/MS, spectral counts; YBEY:p32 stoichiometry from spectral abundance factors
Conditions: remark: other sources report otherwise

- stoichiometry N: 1
B1: p32/C1QBP, endogenous, Q07021 74-282 (natural protein)
chain: LHTDGDKAFVDFLSDEIKEERKIQKHKTLPKMSGGWELELNGTEAKLVRKVAGEKITVTFNINNSIPPTFDGEEEPSQGQKVEEQEPELTSTPNFVVEVIKNDDGKKALVLDCHYPEDEVGQEDEAESDIFSIREVSFQSTGESEWKDTNYTLNTDSLDWALYDHLMDFLADRGVDNTFADELVELSTALEHQEYITFLEDLKSFVKSQ
